In article PMC9813255 (2023):

Experiments:
[1] = biological target: T1, full-length human PQBP5 (His-tag fusion protein) (human, UniProt Q9BSC4-1 1-688); experiment: SPR; fibrillarin analyte, PQBP5 immobilized
T1 chain: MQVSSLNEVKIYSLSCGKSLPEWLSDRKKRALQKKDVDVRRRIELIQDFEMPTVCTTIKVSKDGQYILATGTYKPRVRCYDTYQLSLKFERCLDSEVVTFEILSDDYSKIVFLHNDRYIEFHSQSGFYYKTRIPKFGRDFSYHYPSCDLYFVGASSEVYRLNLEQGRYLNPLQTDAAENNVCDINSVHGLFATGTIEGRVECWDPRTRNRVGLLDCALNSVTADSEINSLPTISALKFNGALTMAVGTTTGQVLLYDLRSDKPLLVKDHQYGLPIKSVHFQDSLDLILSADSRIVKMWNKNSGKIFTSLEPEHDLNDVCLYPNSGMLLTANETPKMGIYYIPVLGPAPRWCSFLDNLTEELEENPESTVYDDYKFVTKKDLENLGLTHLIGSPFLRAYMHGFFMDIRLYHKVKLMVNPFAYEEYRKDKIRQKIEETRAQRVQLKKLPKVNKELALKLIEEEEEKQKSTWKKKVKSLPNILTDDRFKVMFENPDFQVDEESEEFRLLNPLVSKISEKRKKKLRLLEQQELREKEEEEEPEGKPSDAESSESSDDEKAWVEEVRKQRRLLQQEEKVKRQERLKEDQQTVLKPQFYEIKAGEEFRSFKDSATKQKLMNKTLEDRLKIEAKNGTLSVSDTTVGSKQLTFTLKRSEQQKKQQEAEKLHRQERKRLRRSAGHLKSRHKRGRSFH

[2] = biological target: human nucleolin (His-tag fusion protein) (human, UniProt P19338 1-710); experiment: SPR; fibrillarin analyte, nucleolin immobilized
Sequence of human nucleolin (His-tag fusion protein) (P19338 whole entry, the tested form may be a part): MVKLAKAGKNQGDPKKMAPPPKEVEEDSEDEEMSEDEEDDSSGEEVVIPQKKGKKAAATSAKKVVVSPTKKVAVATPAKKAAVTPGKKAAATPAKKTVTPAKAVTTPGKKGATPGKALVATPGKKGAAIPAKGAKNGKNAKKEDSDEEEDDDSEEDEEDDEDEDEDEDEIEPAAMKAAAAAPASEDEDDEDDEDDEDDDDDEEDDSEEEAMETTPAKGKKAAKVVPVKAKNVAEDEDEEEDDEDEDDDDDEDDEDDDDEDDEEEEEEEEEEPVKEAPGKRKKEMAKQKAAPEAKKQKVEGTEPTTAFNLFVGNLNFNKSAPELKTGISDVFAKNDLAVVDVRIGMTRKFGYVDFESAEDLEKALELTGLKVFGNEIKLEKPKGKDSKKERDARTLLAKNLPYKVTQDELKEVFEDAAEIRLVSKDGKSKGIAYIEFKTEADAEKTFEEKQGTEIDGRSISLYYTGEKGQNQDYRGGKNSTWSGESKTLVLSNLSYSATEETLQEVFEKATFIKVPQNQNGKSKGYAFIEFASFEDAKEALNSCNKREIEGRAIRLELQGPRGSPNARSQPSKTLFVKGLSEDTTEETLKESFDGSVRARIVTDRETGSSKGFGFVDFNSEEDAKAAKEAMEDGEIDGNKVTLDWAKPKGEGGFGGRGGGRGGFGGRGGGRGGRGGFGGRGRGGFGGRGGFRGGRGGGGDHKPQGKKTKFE

B1: human fibrillarin (His-tag fusion protein) (natural protein)
chain: MKPGFSPRGGGFGGRGGFGDRGGRGGRGGFGGGRGRGGGFRGRGRGGGGGGGGGGGGGRGGGGFHSGGNRGRGRGGKRGNQSGKNVMVEPHRHEGVFICRGKEDALVTKNLVPGESVYGEKRVSISEGDDKIEYRAWNPFRSKLAAAILGGVDQIHIKPGAKVLYLGAASGTTVSHVSDIVGPDGLVYAVEFSHRSGRDLINLAKKRTNIIPVIEDARHPHKYRMLIAMVDVIFADVAQPDQTRIVALNAHTFLRNGGHFVISIKANCIDSTASAEAVFASEVKKMQQENMKPQEQLTLEPYERDHAVVVGVYRPPPKVKN
For B1, the Kd [1] was 10 nM and the Kd [2] was 2.78 nM.
